# Data from patent US20180155450A1 (Sanofi, published 2018).
# T1: recombinant human IL4 (human, UniProt P05112 25-153)
# T1 construct: bought; also called Antigen1
# T1 sequence (looked up): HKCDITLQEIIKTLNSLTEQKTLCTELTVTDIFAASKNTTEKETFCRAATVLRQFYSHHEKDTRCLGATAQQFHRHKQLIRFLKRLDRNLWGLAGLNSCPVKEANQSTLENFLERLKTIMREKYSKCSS
# T2: recombinant human IL4 (human, UniProt P05112 25-153)
# T2 sequence (looked up): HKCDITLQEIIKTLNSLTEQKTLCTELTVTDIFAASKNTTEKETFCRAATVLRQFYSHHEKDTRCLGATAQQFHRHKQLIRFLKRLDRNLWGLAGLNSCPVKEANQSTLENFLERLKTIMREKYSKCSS
# Key:
# recombinant human IL4 [1] = molecular target: T1, recombinant human IL4; experiment: SPR (Biacore 3000), captured CODV-Ig, antigen as analyte;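 note: kd derived from kinetic fits in BIAevaluation 4.1, with signals referenced against a flow cell lacking captured antibody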
# Method: (§1) Kinetic binding analysis by Biacore was performed as follows. Surface plasmon resonance technology on a Biacore 3000 (GE Healthcare) was used for detailed kinetic characterization of purified antibodies. […] Chip surfaces were regenerated with 10 mM glycine pH 2.5. Kinetic parameters were analyzed and calculated in the BIAevaluation program package v4.1 using a flow cell without captured antibody as a reference.
# recombinant human IL13 = molecular target: T3, recombinant human IL13 (human, UniProt P35225 35-146, limits assumed); experiment: as above
# T3 construct: bought; also called Antigen2
# Method: as §1
# recombinant human IL4 [2] = molecular target: T2, recombinant human IL4; experiment: cell-based or functional assay
# recombinant human IL4 [3] = molecular target: T2, recombinant human IL4; experiment: SPR (Biacore 3000), antibody captured, antigen as analyte
# Method: as §1
# T3 sequence (P35225 35-146 limits assumed): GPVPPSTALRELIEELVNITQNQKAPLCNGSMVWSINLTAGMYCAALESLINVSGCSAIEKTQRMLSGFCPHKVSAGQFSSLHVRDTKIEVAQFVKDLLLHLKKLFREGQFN
Binder,Kd (recombinant human IL4 [1]),Kd (recombinant human IL13),"IC50 Cellular Assay IL4 [nM] (HEK-Blue IL-4/IL-13 reporter cells, SEAP) (recombinant human IL4 [2])",Kd (recombinant human IL4 [3])
"CODV-Ig Batch ID 240 (IL4 × IL13 on HC; L1=7, L2=5, L3=5, L4=2) (bispecific antibody) chain 1: not shown chain 2: DIVLTQSPASLAVSLGQRATISCRASESVDSYGQSYMHWYQQKAGQPPKLLIYLASNLESGVPARFSGSGSRTDFTLTIDPVQAEDAATYYCQQNAEDSRTFGGGTKLEIKGGGGGGGDIQMTQSPASLSVSVGDTITLTCHASQNIDVWLSWFQQKPGNIPKLLIYKASNLHTGVPSRFSGSGSGTGFTLTISSLQPEDIATYYCQQAHSYPFTFGGGTKLEIKGGGGGRTVAAPSVFIFPPSDEQLKSGTASVVCLLNNFYPREAKVQWKVDNALQSGNSQESVTEQDSKDSTYSLSSTLTLSKADYEKHKVYACEVTHQGLSSPVTKSFNRGEC",0.004 nM,0.065 nM,–,–
"CODV-Ig Batch ID 238 (IL4 × IL13 on HC; L1=5, L2=5, L3=5, L4=2) (bispecific antibody) chain 1: not shown chain 2: DIVLTQSPASLAVSLGQRATISCRASESVDSYGQSYMHWYQQKAGQPPKLLIYLASNLESGVPARFSGSGSRTDFTLTIDPVQAEDAATYYCQQNAEDSRTFGGGTKLEIKGGGGGDIQMTQSPASLSVSVGDTITLTCHASQNIDVWLSWFQQKPGNIPKLLIYKASNLHTGVPSRFSGSGSGTGFTLTISSLQPEDIATYYCQQAHSYPFTFGGGTKLEIKGGGGGRTVAAPSVFIFPPSDEQLKSGTASVVCLLNNFYPREAKVQWKVDNALQSGNSQESVTEQDSKDSTYSLSSTLTLSKADYEKHKVYACEVTHQGLSSPVTKSFNRGEC",0.0093 nM,0.0672 nM,–,–
"CODV-Ig Batch ID 202 (IL4 × IL13 on HC; L1=5, L2=5, L3=1, L4=2) (bispecific antibody) chain 1: not shown chain 2: DIVLTQSPASLAVSLGQRATISCRASESVDSYGQSYMHWYQQKAGQPPKLLIYLASNLESGVPARFSGSGSRTDFTLTIDPVQAEDAATYYCQQNAEDSRTFGGGTKLEIKGGGGGDIQMTQSPASLSVSVGDTITLTCHASQNIDVWLSWFQQKPGNIPKLLIYKASNLHTGVPSRFSGSGSGTGFTLTISSLQPEDIATYYCQQAHSYPFTFGGGTKLEIKGGGGGRTVAAPSVFIFPPSDEQLKSGTASVVCLLNNFYPREAKVQWKVDNALQSGNSQESVTEQDSKDSTYSLSSTLTLSKADYEKHKVYACEVTHQGLSSPVTKSFNRGEC",0.009 nM,0.054 nM,–,–
"CODV-Ig Batch ID 237 (IL4 × IL13 on HC; L1=5, L2=3, L3=5, L4=2) (bispecific antibody) chain 1: not shown chain 2: DIVLTQSPASLAVSLGQRATISCRASESVDSYGQSYMHWYQQKAGQPPKLLIYLASNLESGVPARFSGSGSRTDFTLTIDPVQAEDAATYYCQQNAEDSRTFGGGTKLEIKGGGGGDIQMTQSPASLSVSVGDTITLTCHASQNIDVWLSWFQQKPGNIPKLLIYKASNLHTGVPSRFSGSGSGTGFTLTISSLQPEDIATYYCQQAHSYPFTFGGGTKLEIKGGGRTVAAPSVFIFPPSDEQLKSGTASVVCLLNNFYPREAKVQWKVDNALQSGNSQESVTEQDSKDSTYSLSSTLTLSKADYEKHKVYACEVTHQGLSSPVTKSFNRGEC",0.0081 nM,0.101 nM,–,–
"CODV-Ig Batch ID 201 (IL4 × IL13 on HC; L1=5, L2=3, L3=1, L4=2) (bispecific antibody) chain 1: not shown chain 2: DIVLTQSPASLAVSLGQRATISCRASESVDSYGQSYMHWYQQKAGQPPKLLIYLASNLESGVPARFSGSGSRTDFTLTIDPVQAEDAATYYCQQNAEDSRTFGGGTKLEIKGGGGGDIQMTQSPASLSVSVGDTITLTCHASQNIDVWLSWFQQKPGNIPKLLIYKASNLHTGVPSRFSGSGSGTGFTLTISSLQPEDIATYYCQQAHSYPFTFGGGTKLEIKGGGRTVAAPSVFIFPPSDEQLKSGTASVVCLLNNFYPREAKVQWKVDNALQSGNSQESVTEQDSKDSTYSLSSTLTLSKADYEKHKVYACEVTHQGLSSPVTKSFNRGEC",0.004 nM,0.072 nM,–,–
"CODV-Ig Batch ID 233 (IL4 × IL13 on HC; L1=7, L2=3, L3=5, L4=0) (bispecific antibody) chain 1: not shown chain 2: DIVLTQSPASLAVSLGQRATISCRASESVDSYGQSYMHWYQQKAGQPPKLLIYLASNLESGVPARFSGSGSRTDFTLTIDPVQAEDAATYYCQQNAEDSRTFGGGTKLEIKGGGGGGGDIQMTQSPASLSVSVGDTITLTCHASQNIDVWLSWFQQKPGNIPKLLIYKASNLHTGVPSRFSGSGSGTGFTLTISSLQPEDIATYYCQQAHSYPFTFGGGTKLEIKGGGRTVAAPSVFIFPPSDEQLKSGTASVVCLLNNFYPREAKVQWKVDNALQSGNSQESVTEQDSKDSTYSLSSTLTLSKADYEKHKVYACEVTHQGLSSPVTKSFNRGEC",0.003 nM,0.113 nM,–,–
"CODV-Ig Batch ID 203 (IL4 × IL13 on HC; L1=7, L2=3, L3=1, L4=2) (bispecific antibody) chain 1: not shown chain 2: DIVLTQSPASLAVSLGQRATISCRASESVDSYGQSYMHWYQQKAGQPPKLLIYLASNLESGVPARFSGSGSRTDFTLTIDPVQAEDAATYYCQQNAEDSRTFGGGTKLEIKGGGGGGGDIQMTQSPASLSVSVGDTITLTCHASQNIDVWLSWFQQKPGNIPKLLIYKASNLHTGVPSRFSGSGSGTGFTLTISSLQPEDIATYYCQQAHSYPFTFGGGTKLEIKGGGRTVAAPSVFIFPPSDEQLKSGTASVVCLLNNFYPREAKVQWKVDNALQSGNSQESVTEQDSKDSTYSLSSTLTLSKADYEKHKVYACEVTHQGLSSPVTKSFNRGEC",0.08 nM,0.046 nM,–,–
"CODV-Ig Batch ID 243 (IL4 × IL13 on HC; L1=3, L2=6, L3=6, L4=0) (bispecific antibody) chain 1: not shown chain 2: DIVLTQSPASLAVSLGQRATISCRASESVDSYGQSYMHWYQQKAGQPPKLLIYLASNLESGVPARFSGSGSRTDFTLTIDPVQAEDAATYYCQQNAEDSRTFGGGTKLEIKGGGDIQMTQSPASLSVSVGDTITLTCHASQNIDVWLSWFQQKPGNIPKLLIYKASNLHTGVPSRFSGSGSGTGFTLTISSLQPEDIATYYCQQAHSYPFTFGGGTKLEIKGGGGGGRTVAAPSVFIFPPSDEQLKSGTASVVCLLNNFYPREAKVQWKVDNALQSGNSQESVTEQDSKDSTYSLSSTLTLSKADYEKHKVYACEVTHQGLSSPVTKSFNRGEC",0.005 nM,0.05 nM,–,–
"CODV-Ig Batch ID 506 (IL4 × IL13 on HC; L1 GQPKAAP, L2 TVAAP, L3 S, L4 TK) (bispecific antibody) heavy: not shown light: DIVLTQSPASLAVSLGQRATISCRASESVDSYGQSYMHWYQQKAGQPPKLLIYLASNLESGVPARFSGSGSRTDFTLTIDPVQAEDAATYYCQQNAEDSRTFGGGTKLEIKGQPKAAPDIQMTQSPASLSVSVGDTITLTCHASQNIDVWLSWFQQKPGNIPKLLIYKASNLHTGVPSRFSGSGSGTGFTLTISSLQPEDIATYYCQQAHSYPFTFGGGTKLEIKTVAAPRTVAAPSVFIFPPSDEQLKSGTASVVCLLNNFYPREAKVQWKVDNALQSGNSQESVTEQDSKDSTYSLSSTLTLSKADYEKHKVYACEVTHQGLSSPVTKSFNRGEC",–,–,0.045 nM,0.007 nM
"CODV-Ig Batch ID 501 (IL4 × IL13 on HC; L1 ASTKGPS, L2 TKGPS, L3 S, L4 RT) (bispecific antibody) heavy: not shown light: DIVLTQSPASLAVSLGQRATISCRASESVDSYGQSYMHWYQQKAGQPPKLLIYLASNLESGVPARFSGSGSRTDFTLTIDPVQAEDAATYYCQQNAEDSRTFGGGTKLEIKASTKGPSDIQMTQSPASLSVSVGDTITLTCHASQNIDVWLSWFQQKPGNIPKLLIYKASNLHTGVPSRFSGSGSGTGFTLTISSLQPEDIATYYCQQAHSYPFTFGGGTKLEIKTKGPSRTVAAPSVFIFPPSDEQLKSGTASVVCLLNNFYPREAKVQWKVDNALQSGNSQESVTEQDSKDSTYSLSSTLTLSKADYEKHKVYACEVTHQGLSSPVTKSFNRGEC",–,–,0.034 nM,0.001 nM
"CODV-Ig Batch ID 503 (IL4 × IL13 on HC; L1 ASTKGPS, L2 TVAAP, L3 S, L4 SS) (bispecific antibody) heavy: not shown light: DIVLTQSPASLAVSLGQRATISCRASESVDSYGQSYMHWYQQKAGQPPKLLIYLASNLESGVPARFSGSGSRTDFTLTIDPVQAEDAATYYCQQNAEDSRTFGGGTKLEIKASTKGPSDIQMTQSPASLSVSVGDTITLTCHASQNIDVWLSWFQQKPGNIPKLLIYKASNLHTGVPSRFSGSGSGTGFTLTISSLQPEDIATYYCQQAHSYPFTFGGGTKLEIKTVAAPRTVAAPSVFIFPPSDEQLKSGTASVVCLLNNFYPREAKVQWKVDNALQSGNSQESVTEQDSKDSTYSLSSTLTLSKADYEKHKVYACEVTHQGLSSPVTKSFNRGEC",–,–,0.047 nM,0.003 nM
"CODV-Ig Batch ID 505 (IL4 × IL13 on HC; L1 GQPKAAP, L2 TKGPS, L3 S, L4 RT) (bispecific antibody) heavy: not shown light: DIVLTQSPASLAVSLGQRATISCRASESVDSYGQSYMHWYQQKAGQPPKLLIYLASNLESGVPARFSGSGSRTDFTLTIDPVQAEDAATYYCQQNAEDSRTFGGGTKLEIKGQPKAAPDIQMTQSPASLSVSVGDTITLTCHASQNIDVWLSWFQQKPGNIPKLLIYKASNLHTGVPSRFSGSGSGTGFTLTISSLQPEDIATYYCQQAHSYPFTFGGGTKLEIKTKGPSRTVAAPSVFIFPPSDEQLKSGTASVVCLLNNFYPREAKVQWKVDNALQSGNSQESVTEQDSKDSTYSLSSTLTLSKADYEKHKVYACEVTHQGLSSPVTKSFNRGEC",–,–,0.033 nM,0.006 nM
"CODV-Ig Batch ID 504 (IL4 × IL13 on HC; L1 RTVAAPS, L2 QPKAA, L3 S, L4 TK) (bispecific antibody) heavy: not shown light: DIVLTQSPASLAVSLGQRATISCRASESVDSYGQSYMHWYQQKAGQPPKLLIYLASNLESGVPARFSGSGSRTDFTLTIDPVQAEDAATYYCQQNAEDSRTFGGGTKLEIKRTVAAPSDIQMTQSPASLSVSVGDTITLTCHASQNIDVWLSWFQQKPGNIPKLLIYKASNLHTGVPSRFSGSGSGTGFTLTISSLQPEDIATYYCQQAHSYPFTFGGGTKLEIKQPKAARTVAAPSVFIFPPSDEQLKSGTASVVCLLNNFYPREAKVQWKVDNALQSGNSQESVTEQDSKDSTYSLSSTLTLSKADYEKHKVYACEVTHQGLSSPVTKSFNRGEC",–,–,0.042 nM,0.008 nM
"CODV-Ig Batch ID 502 (IL4 × IL13 on HC; L1 ASTKGPS, L2 TVAAP, L3 S, L4 QP) (bispecific antibody) heavy: not shown light: DIVLTQSPASLAVSLGQRATISCRASESVDSYGQSYMHWYQQKAGQPPKLLIYLASNLESGVPARFSGSGSRTDFTLTIDPVQAEDAATYYCQQNAEDSRTFGGGTKLEIKASTKGPSDIQMTQSPASLSVSVGDTITLTCHASQNIDVWLSWFQQKPGNIPKLLIYKASNLHTGVPSRFSGSGSGTGFTLTISSLQPEDIATYYCQQAHSYPFTFGGGTKLEIKTVAAPRTVAAPSVFIFPPSDEQLKSGTASVVCLLNNFYPREAKVQWKVDNALQSGNSQESVTEQDSKDSTYSLSSTLTLSKADYEKHKVYACEVTHQGLSSPVTKSFNRGEC",–,–,0.049 nM,0.003 nM
